Target: the molecule itself
Assay: SEC-MALS

B1: recombinant bovine αA-crystallin Y118D mutant (natural protein)
chain: MDIAIQHPWFKRTLGPFYPSRLFDQFFGEGLFEYDLLPFLSSTISPYYRQSLFRTVLDSGISEVRSDRDKFVIFLDVKHFSPEDLTVKVQEDFVEIHGKHNERQDDHGYISREFHRRDRLPSNVDQSALSCSLSADGMLTFSGPKIPSGVDAGHSERAIPVSREEKPSSAPSS
- stoichiometry N: 75 subunits
